According to paper PMC4613507:

Target: GST-N–ezrin (GST-tagged N-terminal ezrin 1–309 aa) (UniProt P15311)
Assay: pull-down

UniProt P15311, sequence (P15311 1-309): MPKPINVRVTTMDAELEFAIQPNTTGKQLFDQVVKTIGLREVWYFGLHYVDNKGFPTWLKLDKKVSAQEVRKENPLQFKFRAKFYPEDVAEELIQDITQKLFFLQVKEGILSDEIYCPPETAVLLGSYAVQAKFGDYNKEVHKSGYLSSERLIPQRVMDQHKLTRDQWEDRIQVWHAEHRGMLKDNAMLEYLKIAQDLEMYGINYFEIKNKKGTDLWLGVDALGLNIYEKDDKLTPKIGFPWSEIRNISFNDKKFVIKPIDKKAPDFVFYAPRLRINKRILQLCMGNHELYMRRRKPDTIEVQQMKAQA

A fold higher ezrin-binding affinity than NHERF1–C127 of 4 to 8 fold was found for “His6–thioredoxin fused NHERF2–C109 (domain or fragment)” in this work.
